Laboratory results published in patent CN115505041A.

Molecular target: 人EphA2 (human EphA2 on cells: 293T-EphA2 stable line and EphA2-positive tumour lines HCT116, HepG2, HCC827, MDA-MB-231) (human) (UniProt P29317)
Experiment: FACS on 293T-EphA2 cells, EphrinA1-hFc alone (positive control without hybridoma supernatant), APC anti-human IgG Fc

Sequence of UniProt P29317 (P29317 24-976): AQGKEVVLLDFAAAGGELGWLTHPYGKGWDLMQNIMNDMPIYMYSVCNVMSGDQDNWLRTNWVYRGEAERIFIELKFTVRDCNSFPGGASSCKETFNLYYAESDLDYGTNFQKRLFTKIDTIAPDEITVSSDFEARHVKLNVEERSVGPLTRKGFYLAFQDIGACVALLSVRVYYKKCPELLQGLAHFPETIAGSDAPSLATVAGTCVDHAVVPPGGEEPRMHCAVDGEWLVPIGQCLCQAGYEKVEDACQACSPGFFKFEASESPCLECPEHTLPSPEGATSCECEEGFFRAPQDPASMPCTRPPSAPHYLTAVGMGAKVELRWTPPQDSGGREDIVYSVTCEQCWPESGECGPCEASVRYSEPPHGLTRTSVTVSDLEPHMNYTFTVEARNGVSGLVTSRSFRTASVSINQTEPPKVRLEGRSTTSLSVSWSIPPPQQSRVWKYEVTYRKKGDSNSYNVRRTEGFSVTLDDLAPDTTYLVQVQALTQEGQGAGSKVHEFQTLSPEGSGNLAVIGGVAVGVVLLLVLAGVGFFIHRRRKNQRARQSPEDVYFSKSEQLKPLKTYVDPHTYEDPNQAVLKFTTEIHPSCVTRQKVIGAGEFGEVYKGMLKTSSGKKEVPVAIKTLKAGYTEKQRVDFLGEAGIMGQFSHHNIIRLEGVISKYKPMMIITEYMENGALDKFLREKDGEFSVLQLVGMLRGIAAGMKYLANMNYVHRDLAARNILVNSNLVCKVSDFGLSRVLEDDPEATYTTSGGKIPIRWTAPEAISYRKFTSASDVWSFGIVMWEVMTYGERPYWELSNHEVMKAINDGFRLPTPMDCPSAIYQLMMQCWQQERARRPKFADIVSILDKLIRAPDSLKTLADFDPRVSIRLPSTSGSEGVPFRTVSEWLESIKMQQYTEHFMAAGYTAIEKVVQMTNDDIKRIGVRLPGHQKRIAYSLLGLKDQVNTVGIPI

293T-EphA2细胞结合活性: 228000
Substance: 重组EphrinA1-hFc配体蛋白 (recombinant EphrinA1-hFc ligand protein) (Fc fusion)
